Measured values from article PMC4117571.

System: hnRNP A1 (endogenous) ((SF268 cells))
Assay: pull-down, competition, immunoblot
Settings: biotin-16-UTP incorporated; 5 mM HEPES pH 7.1, 40 mM KCl, 0.1 mM EDTA, 2 mM MgCl2, 2 mM DTT, RNasin, 0.25 mg/ml heparin; 200 ug SF268 extract, 3 ug RNA, 100 ul; 15 min 30 C, then beads …

Substance	binding signal (% reduction of bound hnRNP A1)
EV71 SL-II	80
EV71 5'UTR	73
